Test results as given in patent US20160046944, “APTAMER TO IL-17 AND USE THEREOF” (THE UNIVERSITY OF TOKYO, published 2016).

T1: IL-17 (IL-17A) (Homo sapiens, UniProt Q16552 Q16552:24-155)
T1 sequence: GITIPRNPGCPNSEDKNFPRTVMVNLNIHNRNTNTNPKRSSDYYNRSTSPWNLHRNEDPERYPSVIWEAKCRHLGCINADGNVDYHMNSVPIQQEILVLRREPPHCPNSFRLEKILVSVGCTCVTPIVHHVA

T2: IL-17 (Homo sapiens, UniProt Q16552 Q16552:24-155)
T2 sequence: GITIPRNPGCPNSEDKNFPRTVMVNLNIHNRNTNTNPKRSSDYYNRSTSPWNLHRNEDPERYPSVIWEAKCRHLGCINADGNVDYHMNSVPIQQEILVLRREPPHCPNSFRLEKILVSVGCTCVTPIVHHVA


Columns and labels:
Settings in all cases: chain copies: 2
IL-17 (IL-17A) = target: T1, IL-17 (IL-17A); assay: cell_activity; IL-6 release, NIH3T3
Method: (§1) First, human IL-17 and the aptamer produced in Example 1-2 were pre-incubated at 37° C. for 30 min, and added to NIH3T3 cell (ATCC, CRL1658) together with mouse TNFα (2 ng/mL). Then, after incubation for 24 hr, the culture supernatant was collected, and the production amount of IL-6 was measured by ELISA method described below. The IL-17 inhibitory action of each aptamer was determined from the production amount of IL-6. For comparison with the aptamer of the present invention, a conventionally-known aptamer (aptamer No. 50) against IL-17 was used.
ELISA method for verifying IL-17 inhibitory action of aptamer: A microtiter plate for ELISA was coated with rat anti-mouse IL-6 antibody (BD Biosciences, 2 μg/mL; 100 μL/well) diluted with PBS, and incubated at 4° C. overnight. The next day, the microtiter plate was washed 3 times with PBS/0.05% Tween 20, and applied blocking with PBS/1% BSA (200 μL/well) at room temperature for 2 hr. Then, the plate was washed 3 times with PBS/0.05% Tween 20. Recombinant mouse IL-6 (BD Biosciences; 100 μL/well) serially diluted with PBS/1% BSA/0.05% Tween 20 or culture supernatants (100 μL/well) were added to the plate. After incubation at room temperature for 2 hr, the plate was washed 3 times with PBS/0.05% Tween 20. Then, 100 μL/well of biotin conjugated rat anti-mouse IL-6 antibody (BD Biosciences) was added to the plate at final dilution of 1/500, and the mixture was reacted at room temperature for 1 hr. After washing 3 times with PBS/0.05% Tween 20, 100 μL/well of alkaline phosphatase conjugated streptavidin was added at final dilution of 1/1000. After 30 min at room temperature, the plate was again washed 4 times with PBS/0.05% Tween 20, and a substrate (1-Step PNPP; Thermo Fisher Scientific Inc; 100 μL/well) was added. After 15 min, aqueous sodium hydroxide solution (2N: 50 μL/well) was added to stop the reaction, and the plate was read on a microtiter reader (Bio-Rad) by using a 405 nm filter.

IL-17 [1] = target: T2, IL-17; assay: cell_activity; NIH3T3 IL-6 release
Method: as §1, with “1-1” for “1-2”, “the” for “the production”, “BD Cytometric Bead Array (BD Biosciences).” for “ELISA method described below.”

IL-17 [2] = target: T2, IL-17; assay: SPR; IL-17R-Fc on chip
Method: Whether aptamers shown by aptamer Nos. 1-49 inhibit the binding of IL-17 and IL-17 receptor was evaluated by the surface plasmon resonance method.
For the measurement, BIAcore2000 manufactured by BIAcore was used. […] As an analyte, IL-17 (100 or 150 nM) and an aptamer (50 or 100 nM) shown by aptamer No. 1-49 were mixed, maintained for 15 min and after that the mixture was flown.

Row | Binder | IC50 (IL-17 (IL-17A)) [nM] | IC50 (IL-17 [1]) [nM] | binding signal (IL-17 [2])
1 | GGGUAGCCGGAGGAGUCAGUAAUCGGUACCC (mixed, g(M)g(M)g(M)u(M)a(M)gc(M)c(M)gg(M)a(F)gg(M)a(M)gu(F)c(F)a(F)gu(F)a(M)a(M)u(M)c(M)g(M)g(M)u(F)Ac(M)c(M)c(M)) [aptamer No. 77] | 4.66 |  | 
2 | GGGUAGCCGGAGGAGUCAGUAAUCGGUACCC (mixed, g(M)g(M)g(M)u(M)a(M)g(S)c(M)c(M)Gg(M)a(F)gg(M)a(M)gu(F)c(F)a(F)gu(F)a(M)a(M)u(M)c(M)g(M)g(M)u(F)a(M)c(M)c(M)c(M)) [aptamer No. 69] | 1.73 |  | 
3 | GGGUAGCCGGAGGAGTCAGTAAUCGGUACCC (mixed, g(M)g(M)g(M)u(M)a(M)g(S)c(M)c(M)Gg(M)a(M)gg(M)a(M)g(S)Tc(M)a(F)g(S)Taau(M)c(M)g(M)g(M)u(M)a(M)c(M)c(M)c(M)) [aptamer No. 91] | 3.86 |  | 
4 | GGGUAGCCGGAGGAGUCAGUAAUCGGUACCC (mixed, g(M)g(M)g(M)u(M)a(M)g(S)c(M)c(M)Gg(M)a(F)gg(M)a(M)gu(F)c(F)a(F)gu(F)a(M)a(M)u(M)c(M)g(M)g(M)u(F)Ac(M)c(M)c(M)) [aptamer No. 80] | 1.52 |  | 
5 | GGGUAGCCGGAGGAGTCAGTAAUCGGUACCC (mixed, g(M)g(M)g(M)u(M)a(M)g(S)c(M)c(M)Gg(M)a(F)gg(M)a(M)gTc(F)a(F)gTa(M)a(M)u(M)c(M)g(M)g(M)u(M)a(M)c(M)c(M)c(M)) [aptamer No. 65] | 0.67 |  | 
6 | GGGUAGCCGGAGGAGUCAGUAAUCGGUACCC (mixed, g(M)g(M)g(M)u(M)a(M)gc(M)c(M)Gg(M)a(F)gg(M)a(M)gu(F)c(F)a(F)gu(F)a(M)a(M)u(M)c(M)g(M)g(M)u(F)Ac(M)c(M)c(M)) [aptamer No. 76] | 1.7 |  | 
7 | GGGUAGCCGGAGGAGTCAGTAAUCGGUACCC (mixed, g(M)g(M)g(M)u(M)Ag(S)c(M)c(M)Gg(M)a(F)gg(M)a(M)g(S)Tc(F)a(F)g(M)Ta(M)a(M)u(M)c(M)g(M)g(M)u(F)a(M)c(M)c(M)c(M)) [aptamer No. 59] | 1.19 |  | 
8 | GGGUAGCCGGAGGAGUCAGUAAUCGGUACCC (mixed, g(M)g(M)g(M)u(M)a(M)g(S)c(M)c(M)Gg(M)a(F)gg(M)a(M)g(S)u(F)c(F)a(F)g(S)u(F)a(M)a(M)u(M)c(M)g(M)g(M)u(F)a(M)c(M)c(M)c(M)) [aptamer No. 70] | 3.28 |  | 
9 | GGGUAGCCGGAGGAGTCAGTAAUCGGUACCC (mixed, g(M)g(M)g(M)u(M)a(M)g(S)c(M)c(M)Gg(M)a(M)gg(M)a(M)g(S)Tc(M)a(F)g(S)Ta(M)a(M)u(M)c(M)g(M)g(M)u(M)a(M)c(M)c(M)c(M)) [aptamer No. 81] | 2.26 |  | 
10 | GGGUAGCCGGAGGAGTCAGTAAUCGGUACCC (mixed, g(M)g(M)g(M)u(M)Ag(S)c(M)c(M)Gg(M)a(F)gg(M)a(M)gTc(F)a(F)g(S)Ta(M)a(M)u(M)c(M)g(M)g(M)u(F)a(M)CCC) [aptamer No. 53] | 1.67 |  | 
11 | GGGUAGCCGGAGGAGUCAGUAAUCGGUACCC (mixed, g(M)g(M)g(M)u(M)a(M)g(S)c(M)c(M)Gg(M)a(F)gg(M)a(M)gu(F)c(F)a(F)gu(F)a(M)a(M)u(M)c(M)g(M)g(M)u(M)a(M)c(M)c(M)c(M)) [aptamer No. 72] | 2.24 |  | 
12 | GGGUAGCCGGAGGAGTCAGTGAUCGGUACCC (mixed, g(M)g(M)g(M)u(M)a(M)g(S)c(M)c(M)Gg(M)a(M)gg(M)a(M)g(S)Tc(M)a(F)g(S)Tga(M)u(M)c(M)g(M)g(M)u(M)a(M)c(M)c(M)c(M)) [aptamer No. 87] | 3.23 |  | 
13 | GGGUAGCCGGAGGAGTCAGTAAUCGGUACCC (mixed, 2'-OMe (M), 2'-F (F), PS (S) as marked; uppercase DNA [1,2,3,4,5,6,7,8,10,11,13,14,17,18,21,23,24,25,26,27]) [aptamer No. 10] |  | 0.63 | 25.2 % IL-17/IL-17R binding remaining
14 | GGGUAGCCGGAGGAGTCAGTAAUCGGUACCC (mixed, g(M)g(M)g(M)u(M)a(M)g(S)c(M)c(M)Gg(M)a(F)gg(M)a(M)gTc(F)a(F)gTa(M)a(M)u(M)c(M)g(M)g(M)u(F)a(M)c(M)c(M)c(M)) [aptamer No. 62] | 0.69 |  | 
15 | GGGUAGCCGGAGGAGUCAGUAAUCGGUACCC (mixed, g(M)g(M)g(M)u(M)a(M)g(S)c(M)c(M)Gg(M)a(F)gg(M)a(M)g(S)u(F)c(F)a(F)g(S)u(F)a(M)a(M)u(M)c(M)g(M)g(M)u(M)a(M)c(M)c(M)c(M)) [aptamer No. 73] | 3.46 |  | 
16 | GGGUAGCCGGAGGAGTCAGTAAUCGGUACCC (mixed, g(M)g(M)g(M)u(M)a(M)g(S)c(M)c(M)Gg(M)a(M)gg(M)a(M)g(S)Tc(M)a(F)g(S)Ta(M)au(M)c(M)g(M)g(M)u(M)a(M)c(M)c(M)c(M)) [aptamer No. 90] | 1.08 |  | 
17 | GGGUAGCCGGAGGAGUCAGUAAUCGGUACCC (mixed, g(M)g(M)g(M)u(M)a(M)g(S)c(M)c(M)Gg(M)a(F)gg(M)a(M)g(S)u(F)c(F)a(F)g(S)u(F)a(M)a(M)u(M)c(M)g(M)g(M)u(F)Ac(M)c(M)c(M)) [aptamer No. 68] | 2.4 |  | 
18 | GGGUAGCCGGAGGAGTCAGTAAUCGGUACCC (mixed, g(M)g(M)g(M)u(M)Ag(S)c(M)c(M)Gg(M)a(F)gg(M)a(M)g(S)Tc(F)a(F)g(S)Ta(M)a(M)u(M)c(M)g(M)g(M)u(F)a(M)CCC) [aptamer No. 56] | 0.52 |  | 
19 | GGGUAGCCGGAGGAGTCAGTAAUCGGUACCC (mixed, 2'-OMe (M), 2'-F (F), PS (S) as marked; uppercase DNA [1,2,3,4,6,7,8,10,11,13,14,17,18,23,24,25,26,27,28]) [aptamer No. 8] |  | 0.49 | 15.3 % IL-17/IL-17R binding remaining
20 | GGGUAGCCGGAGGAGTCAGTAAUCGGTACCC (mixed, 2'-OMe (M), 2'-F (F) as marked; uppercase DNA [2'-OMe: 1-4,7,8,10,13,14,23-26,28-31; 2'-F: 17]) [aptamer No. 22] |  | 1.66 | 
21 | GGGUAGCCGGAGGAGTCAGTAAUCGGUACCC (mixed, g(M)g(M)g(M)u(M)a(M)g(S)c(M)c(M)Gg(M)a(F)gg(M)a(M)g(S)Tc(F)a(F)g(M)Ta(M)a(M)u(M)c(M)g(M)g(M)u(F)a(M)c(M)c(M)c(M)) [aptamer No. 60] | 2.35 |  | 
22 | GGGUAGCCGGAGGAGUCAGUAAUCGGUACCC (mixed, g(M)g(M)g(M)u(M)a(M)g(S)c(M)c(M)Gg(M)a(M)gg(M)a(M)g(S)u(F)c(F)a(F)g(S)u(F)a(M)au(M)c(M)g(M)g(M)u(F)a(M)c(M)c(M)c(M)) [aptamer No. 93] | 0.22 |  | 
23 | GGGUAGCCGGAGGAGUCAGUAAUCGGUACCC (mixed, g(M)g(M)g(M)u(M)a(M)g(S)c(M)c(M)Gg(M)a(M)gg(M)a(M)g(S)u(F)c(F)a(F)g(S)u(F)aa(M)u(M)c(M)g(M)g(M)u(F)a(M)c(M)c(M)c(M)) [aptamer No. 92] | 2.6 |  | 
